Literature values as cited in article PMC3667765.
pKd: −log10 of the molar value.

Biological target: E-cadherin (Homo sapiens) (UniProt P12830)
Chain of UniProt P12830 (P12830 155-709): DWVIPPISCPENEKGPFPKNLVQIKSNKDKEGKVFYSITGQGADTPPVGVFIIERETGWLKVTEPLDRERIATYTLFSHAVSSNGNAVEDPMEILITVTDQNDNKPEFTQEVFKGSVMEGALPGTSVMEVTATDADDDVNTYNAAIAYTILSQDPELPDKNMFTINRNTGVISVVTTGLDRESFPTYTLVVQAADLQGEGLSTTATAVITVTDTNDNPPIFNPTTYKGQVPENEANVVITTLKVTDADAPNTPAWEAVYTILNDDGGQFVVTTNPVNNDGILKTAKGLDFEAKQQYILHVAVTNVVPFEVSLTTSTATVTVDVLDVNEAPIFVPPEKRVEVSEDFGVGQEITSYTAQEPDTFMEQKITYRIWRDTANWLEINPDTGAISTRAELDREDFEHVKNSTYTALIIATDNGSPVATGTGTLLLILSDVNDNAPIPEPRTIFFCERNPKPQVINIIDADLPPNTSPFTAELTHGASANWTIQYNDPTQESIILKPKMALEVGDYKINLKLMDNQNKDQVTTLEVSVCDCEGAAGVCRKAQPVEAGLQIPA

In the case of Internalin A (from UniProt P0DJM0), the pKd is given as 5.10.
